In patent US20240018252A1 (Pfizer, published 2024):
Where a chain is given by its changes, count along the chain named.

T1: human BCMA (human, UniProt Q02223 1-54)
T1 construct: also called huBCMA; hBCMA
T1 sequence: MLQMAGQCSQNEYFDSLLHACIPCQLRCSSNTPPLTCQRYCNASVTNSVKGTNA

B1: L3.PY/P6E01 (antibody, V domains shown)
VH: EVQLLESGGGLVQPGGSLRLSCAASGFTFGSYAMTWVRQAPGKGLEWVSAISGSGGNTFYADSVKGRFTISRDNSKNTLYLQMNSLRAEDTAVYYCARVSPIASGMDYWGQGTLVTVSS
VL: EIVLTQSPGTLSLSPGERATLSCRASQSVSSSYLAWYQQKPGQAPRLLIYGASSRATGIPDRFSGSGSGTDFTLTISRLEPEDFAVYYCQHYPYPPSFTFGQGTKVEIK
notes: IgG in the assay
B2: L3.NY/P6E01 (antibody, V domains shown)
VH: B1 VH
VL: B1 VL with P93N
notes: IgG in the assay
B3: P6E01/P6E01 (antibody, V domains shown)
VH: B1 VH
VL: not shown
notes: IgG in the assay; also called P6E01_VHVL
B4: L1.GDF/L3.NY/H3.AP (antibody, V domains shown)
VH: B1 VH with S104A, G105P
VL: B1 VL with S30G, S31D, S32F, P93N
notes: IgG in the assay
B5: L1.LGF/L3.KW/H3.AQ (antibody, V domains shown)
VH: B1 VH with S104A, G105Q
VL: B1 VL with V29L, S30G, S32F, Q90K, P93G, Y94W
notes: IgG in the assay
B6: L1.GDF/L3.KW/H3.AQ (antibody, V domains shown)
VH: B1 VH with S104A, G105Q
VL: B1 VL with S30G, S31D, S32F, Q90K, P93G, Y94W
notes: IgG in the assay
B7: L1.LGF/L3.KW/H3.AL (antibody, V domains shown)
VH: B1 VH with S104A, G105L
VL: B1 VL with V29L, S30G, S32F, Q90K, P93G, Y94W
notes: IgG in the assay
B8: L1.LGF/L3.PY/H3.AP (antibody, V domains shown)
VH: B1 VH with S104A, G105P
VL: B1 VL with V29L, S30G, S32F
notes: IgG in the assay
B9: L1.LGF/L3.KW/P6E01 (antibody, V domains shown)
VH: B1 VH
VL: B1 VL with V29L, S30G, S32F, Q90K, P93G, Y94W
notes: IgG in the assay
B10: L1.LGF/L3.NY/P6E01 (antibody, V domains shown)
VH: B1 VH
VL: B1 VL with V29L, S30G, S32F, P93N
notes: IgG in the assay
B11: L1.LGF/L3.KW/H3.AP (antibody, V domains shown)
VH: B1 VH with S104A, G105P
VL: B1 VL with V29L, S30G, S32F, Q90K, P93G, Y94W
notes: IgG in the assay
B12: L1.LGF/L3.NY/H3.AL (antibody, V domains shown)
VH: B1 VH with S104A, G105L
VL: B1 VL with V29L, S30G, S32F, P93N
notes: IgG in the assay
B13: P6E01/H3.AQ (antibody, V domains shown)
VH: B1 VH with S104A, G105Q
VL: not shown
notes: IgG in the assay
B14: L1.GDF/L3.NY/P6E01 (antibody, V domains shown)
VH: B1 VH
VL: B1 VL with S30G, S31D, S32F, P93N
notes: IgG in the assay
B15: L1.GDF/L3.KW/H3.AL (antibody, V domains shown)
VH: B1 VH with S104A, G105L
VL: B1 VL with S30G, S31D, S32F, Q90K, P93G, Y94W
notes: IgG in the assay
B16: L1.LGF/L3.NY/H3.AQ (antibody, V domains shown)
VH: B1 VH with S104A, G105Q
VL: B1 VL with V29L, S30G, S32F, P93N
notes: IgG in the assay
B17: L1.GDF/L3.KW/H3.AP (antibody, V domains shown)
VH: B1 VH with S104A, G105P
VL: B1 VL with S30G, S31D, S32F, Q90K, P93G, Y94W
notes: IgG in the assay
B18: L1.GDF/L3.PY/H3.AQ (antibody, V domains shown)
VH: B1 VH with S104A, G105Q
VL: B1 VL with S30G, S31D, S32F
notes: IgG in the assay
B19: L1.GDF/L3.NY/H3.AQ (antibody, V domains shown)
VH: B1 VH with S104A, G105Q
VL: B1 VL with S30G, S31D, S32F, P93N
notes: IgG in the assay
B20: L1.LGF/L3.PY/H3.AQ (antibody, V domains shown)
VH: B1 VH with S104A, G105Q
VL: B1 VL with V29L, S30G, S32F
notes: IgG in the assay
B21: L1.LGF/L3.NY/H3.AP (antibody, V domains shown)
VH: B1 VH with S104A, G105P
VL: B1 VL with V29L, S30G, S32F, P93N
notes: IgG in the assay
B22: L1.GDF/L3.NY/H3.AL (antibody, V domains shown)
VH: B1 VH with S104A, G105L
VL: B1 VL with S30G, S31D, S32F, P93N
notes: IgG in the assay
B23: L3.KW/P6E01 (antibody, V domains shown)
VH: B1 VH
VL: B1 VL with Q90K, P93G, Y94W
notes: IgG in the assay
B24: L3.PY/L1.PS/H2.DY (antibody, V domains shown)
VH: B1 VH with S52D, G53Y
VL: B1 VL with L34P, A35S
notes: IgG in the assay
B25: L3.PY/L1.PS/H2.QL (antibody, V domains shown)
VH: B1 VH with S63Q, V64L
VL: B1 VL with L34P, A35S
notes: IgG in the assay
B26: L3.PY/L1.PS/H2.YQ (antibody, V domains shown)
VH: B1 VH with G53Y, S54Q
VL: B1 VL with L34P, A35S
notes: IgG in the assay
B27: L3.PY/L1.PS/H2.LT (antibody, V domains shown)
VH: B1 VH with G53L, S54T
VL: B1 VL with L34P, A35S
notes: IgG in the assay
B28: L3.PY/L1.PS/H3.AE (antibody, V domains shown)
VH: B1 VH with S104A, G105E
VL: B1 VL with L34P, A35S
notes: IgG in the assay
B29: L3.PY/L3.KY/P6E01 (antibody, V domains shown)
VH: B1 VH
VL: B1 VL with Q90K, H91Y
notes: IgG in the assay
B30: L3.PY/L1.PS/H3.YA (antibody, V domains shown)
VH: B1 VH with A103Y, S104A
VL: B1 VL with L34P, A35S
notes: IgG in the assay
B31: L3.PY/L1.PS/H2.QR (antibody, V domains shown)
VH: B1 VH with S63Q, V64R
VL: B1 VL with L34P, A35S
notes: IgG in the assay
B32: L3.PY/L1.PS/H2.HA (antibody, V domains shown)
VH: B1 VH with G53H, S54A
VL: B1 VL with L34P, A35S
notes: IgG in the assay
B33: L3.PY/L1.PS/H3.TAQ (antibody, V domains shown)
VH: B1 VH with A97T, S104A, G105Q
VL: B1 VL with L34P, A35S
notes: IgG in the assay
B34: L3.PY/L1.PS/P6E01 (antibody, V domains shown)
VH: B1 VH
VL: B1 VL with L34P, A35S
notes: IgG in the assay
B35: L3.PY/L3.KF/P6E01 (antibody, V domains shown)
VH: B1 VH
VL: B1 VL with Q90K, H91F
notes: IgG in the assay
B36: L3.PY/L1.PS/H3.AQ (antibody, V domains shown)
VH: B1 VH with S104A, G105Q
VL: B1 VL with L34P, A35S
notes: IgG in the assay

Each binder was assayed against T1, human BCMA (assay: SPR, immobilised IgG, 25° C).

Going from B1 to B2, the “T½” value falls from 50.7 min to 30.1 min (1.7-fold).

Going from B3 to B4, the “T½” value rises from 2.8 min to 8.21 min (2.9-fold).

First: B5
Second: B6
The “T½” value of the first is 3.6-fold higher: 12.1 min for the first, 3.32 min for the second.

B7 and B8 are within 1.5-fold of each other in “T½” value: 9.4 min for the first, 11.9 min for the second.

Going from B9 to B10, the “T½” value rises from 1.53 min to 2.63 min (1.7-fold).

Compared with B11, B12 is 2.3-fold higher in “T½” value: 5.1 min for the first, 11.9 min for the second.

Going from B13 to B14, the “T½” value falls from 33.5 min to 1.95 min (17-fold).

First: B15
Second: B16
The “T½” value of the first is 13-fold lower: 2.96 min for the first, 38.6 min for the second.

Going from B17 to B18, the “T½” value falls from 2.51 min to 0.86 min (2.9-fold).

B19 and B20 are within 1.5-fold of each other in “T½” value: 16 min for the first, 13 min for the second.

First: B21
Second: B22
The “T½” value of the first is 7.6-fold higher: 21.7 min for the first, 2.87 min for the second.

For B23, the “T½” value was 36.7 min.

These binders were tested against T2, cyBCMA (cynomolgus, UniProt A0A2K5UD97 1-53) (assay: SPR, immobilised IgG, 25° C).
T2 construct: Soluble analyte in SPR; construct not described; also called cyno BCMA
T2 sequence (A0A2K5UD97 entry or part of it): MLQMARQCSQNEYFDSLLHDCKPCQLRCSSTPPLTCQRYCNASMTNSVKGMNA

B1 and B2 are within 1.5-fold of each other in “T½” value: 3.9 min for the first, 4 min for the second.

Going from B4 to B5, the “T½” value rises from 1.6 min to 3.3 min (2.1-fold).

Going from B6 to B7, the “T½” value falls from 2 min to 1 min (2-fold).

Compared with B8, B9 is 1.5-fold lower in “T½” value: 0.9 min for the first, 0.6 min for the second.

Compared with B10, B11 is 1.6-fold lower in “T½” value: 1.1 min for the first, 0.7 min for the second.

Compared with B12, B14 is 1.9-fold higher in “T½” value: 0.8 min for the first, 1.5 min for the second.

Compared with B15, B16 is 13-fold higher in “T½” value: 0.6 min for the first, 7.8 min for the second.

B17 and B18 are within 1.5-fold of each other in “T½” value: 0.6 min for the first, 0.7 min for the second.

First: B19
Second: B20
The “T½” value of the first is 3.5-fold higher: 8.5 min for the first, 2.4 min for the second.

First: B21
Second: B22
The “T½” value of the first is 4.2-fold higher: 2.1 min for the first, 0.5 min for the second.

B23 was tested, and the “T½” value was 4.5 min.

What follows are binders tested against T1, human BCMA (assay: SPR, immobilised IgG, 37° C).

Going from B1 to B24, the “T½” value falls from 5.91 min to 3.2 min (1.8-fold).

Going from B25 to B26, the “T½” value rises from 0.04 min to 2.69 min (67-fold).

Going from B27 to B28, the “T½” value rises from 2.49 min to 7.93 min (3.2-fold).

First: B29
Second: B30
The “T½” value of the first is 8.4-fold higher: 10.7 min for the first, 1.28 min for the second.

First: B31
Second: B32
The “T½” value of the first is 9.9-fold lower: 0.11 min for the first, 1.09 min for the second.

Going from B33 to B34, the “T½” value rises from 4.7 min to 10.2 min (2.2-fold).

B35 and B36 are within 1.5-fold of each other in “T½” value: 5.56 min for the first, 6.46 min for the second.

These binders were tested against T2, cyBCMA (assay: SPR, immobilised IgG, 37° C).

First: B1
Second: B24
The “T½” value of the first is 3.5-fold lower: 0.88 min for the first, 3.06 min for the second.

Compared with B25, B26 is 5.9-fold lower in “T½” value: 18.2 min for the first, 3.09 min for the second.

B27 and B28 are within 1.5-fold of each other in “T½” value: 2.81 min for the first, 2.8 min for the second.

First: B29
Second: B30
The “T½” value of the first is 2-fold higher: 2.3 min for the first, 1.16 min for the second.

Going from B31 to B32, the “T½” value falls from 17.2 min to 4.3 min (4-fold).

B33 and B34 are within 1.5-fold of each other in “T½” value: 2.09 min for the first, 1.91 min for the second.

First: B35
Second: B36
The “T½” value of the first is 1.9-fold lower: 1.39 min for the first, 2.67 min for the second.
